Test results: the nanobody polyreactivity screen of Harvey et al. (2022)

assay: yeast display, Sf9 membrane polyspecificity reagent, FACS + sequencing; frameworks hold sequencing errors
Procedure, shortened: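 Sorting gates, low and high (top ~1%), were placed on anti-HA fluorescence to track expression and on streptavidin fluorescence to track reagent binding. A clone's polyreactivity label is taken from the gate it came out of. The reagent was 10% biotinylated, detergent-solubilized Sf9 membrane, applied for 1 hour at 4 °C to galactose-induced yeast display cells.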

Which “polyreactivity (PSR sort gate)” value does the source give for “QVQLVESGGGLVQAGGSLRLICDASGSTFAVYTMGLYIQAPGTEREFVAAISSTGTCTYYADSVKGRFTISRDHAKNTVYLQKNSLKPEDTAVYYCAARWLGYRISYDYWGQGTQVTVSS” here?
The value was “high polyreactivity”.

With “QVQLVESGGGLVQAGGSLRLICGASGSTFQVNAMGWYRQGPGKERELVASISGGSSTNYADSVKGRFTISRDNAKNTVYLQMNSLKPEDTAVYYCAAYYLSGLRVAYDYWGQGTQVTVSS” as the sequence, how does the “polyreactivity (PSR sort gate)” value read?
Its value is “low polyreactivity”.

For “QVQLVESGGGLVQAGGSLRLICPASGRTFQYYAMGWYRQAPGKERELVAAIDDSDGDTYYADSVKGRFTISRDYATNTVYLQMISLKPEDTAVYYCAAVDGWTYTGSDYWGQGTQVTVSS”, which “polyreactivity (PSR sort gate)” value is on record?
The value was “low polyreactivity”.

For “QVQLVESGGGLVQAGGSLRLICSASGLISRINAMGWYRQAPGKERELVAAISSGGSTNYADSVKGRFTISRDNAKNTVYLQMNSLKPEDTAVYYCAAEVFRVAWYDYWGQGTQVTVSS”, which “polyreactivity (PSR sort gate)” value is on record?
Its value is “high polyreactivity”.

With “QVQLVESGGGLVQAGGSLRLISAASGFIFLFYAMGWYRQAPGKERELVAAISSGVSTNYADSVKGRFTISRDNAKNTVYLQMNCLKPEDTAVYYCTTTQSTSLLYDYWGPGTQVTVSS” as the sequence, how does the “polyreactivity (PSR sort gate)” value read?
Its value is “low polyreactivity”.

For “QVQLVESGGGLVQAGGSLRLISAASGSTFKIYAMGWYRQAPGKERELVAAITWSGGSTYYADSVKGRFTISRDNAKNTVYLQMNSLKPEDPAVYYCAAVQTYSRYYYWGQGTQVTVSS”, which “polyreactivity (PSR sort gate)” value is on record?
The value was “high polyreactivity”.

Which “polyreactivity (PSR sort gate)” value does the source give for “QVQLVESGGGLVQAGGSLRLNCAASGSIFDDYAMGWYRQAPGKERELVAAINIRTGSTYYADSVKGRFTISRDNAKNTVYLQMNSLKPEDTAVYYCNRVVRGFVRHLDYWGQGTQVTVSS” here?
Its value is “low polyreactivity”.

For “QVQLVESGGGLVQAGGSLRLNCAASGSIFVLYAMGWYRQAPRKERELVAAIRSTGSTNYADSVKGRFTISRDNAKNTVYLQMNSLKPEDTAVYYCAAYRRRTYAVNKEGGYWGQGTQVTVSS”, which “polyreactivity (PSR sort gate)” value is on record?
Its value is “high polyreactivity”.

With “QVQLVESGGGLVQAGGSLRLNCAASGSTFGRNAKGWYRQAPGKERELVAAISLSTGSTYDADSVKGRFTISRDNAKNTVYLQMNSLKPEDTAVYYCAKEWGHPYHFLYYYWGQGTQVTVSS” as the sequence, how does the “polyreactivity (PSR sort gate)” value read?
Its value is “high polyreactivity”.

With “QVQLVESGGGLVQAGGSLRLNCAASGSTFGYYAMGWYRQAPGKQRELVAAITSGASTNYADSVKGRFTISRDNAKNTVYLLMNSLKPEDTAVYYCSAGFQTRTPLNEFDYWGQGTQVTVSS” as the sequence, how does the “polyreactivity (PSR sort gate)” value read?
The value was “low polyreactivity”.

Which “polyreactivity (PSR sort gate)” value does the source give for “QVQLVESGGGLVQAGGSLRLRCAAAGSIFKLNAMGWYRQAPGKERELVAVIYKSAGRTYYADSVKGRFTISRDNAKNTVYLQMNSLKTEDTAVYYCNAVSKLAVNLDYWGQGTQVTVSS” here?
The value was “high polyreactivity”.

Which “polyreactivity (PSR sort gate)” value does the source give for “QVQLVESGGGLVQAGGSLRLRCAASGFIFAWDAMGWYRQAPGKERELVATISGSGGRTYYADSVKGRFPISRDNAKNTVYLQMISLKPEETAVYYCATRAQGTSWYRTSKYDYWGQGTQVIVSS” here?
Its value is “high polyreactivity”.

Which “polyreactivity (PSR sort gate)” value does the source give for “QVQLVESGGGLVQAGGSLRLRCAASGFIFIFNAMGWYRQAPGKERELVAAIDTSDDSTYYADSVKGRFTISRDNAKNTVYLQMNSLKPEDTAVYYCAAEELSNYEYWGQGTQVTVSS” here?
Its value is “low polyreactivity”.

Which “polyreactivity (PSR sort gate)” value does the source give for “QVQLVESGGGLVQAGGSLRLRCAASGFIFPQYAMGWYRQAPGKEREKVAAISWSGTRTYYADSVKGRFTISRDNAKNTVYLQMNSLKPEDTADYYCAARIDRQYRWTGFGYWGQGTQVTVSS” here?
The value was “high polyreactivity”.

Which “polyreactivity (PSR sort gate)” value does the source give for “QVQLVESGGGLVQAGGSLRLRCAASGFTFDLYAMGWYRQAPGKERELVAAISWSGGSTRYADSVKGRFTISRDNAKNTVYLQMNSLKPEDTAVYYCAKPVLVGLGSRYDYWGQGTQVTVSS” here?
Its value is “high polyreactivity”.

Which “polyreactivity (PSR sort gate)” value does the source give for “QVQLVESGGGLVQAGGSLRLRCAASGFTFYRKAMGWYRHAHGKERELVAAITRGGSTTYADSVKGRFTISRDNAKNTVYLQMNSLKPEDTAVYYCAVPQYLYLQAGHGYRYYYWGQGSQVTVSS” here?
Its value is “high polyreactivity”.

Which “polyreactivity (PSR sort gate)” value does the source give for “QVQLVESGGGLVQAGGSLRLRCAASGGIFGYYAMGLYRQAPGKERDFVAAITLSGGRTYYADSVKGRFTISRDNAKNTVYLQMNSLKPEDTAVYYCAAKGTRRGKERNYWGQGTQVTLSS” here?
Its value is “high polyreactivity”.

With “QVQLVESGGGLVQAGGSLRLRCAASGGTFRYNAMGWYRQAPGKERELVAAISSSGGSTYYADSVKGRFTISRDNAKNTVYLQMNSLKPEDTAVYYCAAKRRRYVELDYWGQGTQVTVSS” as the sequence, how does the “polyreactivity (PSR sort gate)” value read?
The value was “high polyreactivity”.

For “QVQLVESGGGLVQAGGSLRLRCAASGITLAGYVMGWYRQAPGKERELVADISSSGDSTYYADSVKGRFTISRDNAKNTVYLQMNSLKPEDTAVYYCNADQVWWSFDRVLVGYEYWGQGSQVTVSS”, which “polyreactivity (PSR sort gate)” value is on record?
Its value is “low polyreactivity”.

Which “polyreactivity (PSR sort gate)” value does the source give for “QVQLVESGGGLVQAGGSLRLRCAASGLIFITYAMGRYRQAPGKERELVATITLRGGSTYYADSVKGRFTISRDNAKNTVYLQMNSLKPEDTAVYYCNADSIYYGYDYWGQGTQVTVSS” here?
The value was “low polyreactivity”.

Which “polyreactivity (PSR sort gate)” value does the source give for “QVQLVESGGGLVQAGGSLRLRCAASGLIFPYYAMGWYRQAPGKERELVAGITSDGSTNYADSVKGRFTLSRDNAKNTVYLQMNSLKPEDTAVYYCNARGVYFWWRLDYWGQGTQVTVSS” here?
The value was “low polyreactivity”.

For “QVQLVESGGGLVQAGGSLRLRCAASGRIFAPYAMGRYRQAPWKERELVAAIDGSGGSTYYADSVKGRFTISRDNAKNTVYLQMNSLKPEDTAVYYCANRGYYRSQRWYGYWGQGTQVTVSS”, which “polyreactivity (PSR sort gate)” value is on record?
Its value is “high polyreactivity”.

Which “polyreactivity (PSR sort gate)” value does the source give for “QVQLVESGGGLVQAGGSLRLRCAASGRIFKSYAMGWYRQAPGKERELVAAINWSGGSTYYADSVKGRFTISRDNAKNTVYLQMNSLKPEDTAVYYCNALYAVRSYDSWGQGTQVTVSS” here?
The value was “high polyreactivity”.

Which “polyreactivity (PSR sort gate)” value does the source give for “QVQLVESGGGLVQAGGSLRLRCAASGRIFREYAMGWYRQAPGKERELVAAITASGGGTYYADSVKGRFTISRDNAKNTVYLQMNSLKPEDTAVYYCAARYSSRTRNDYWGQGTQVTVSS” here?
The value was “low polyreactivity”.

For “QVQLVESGGGLVQAGGSLRLRCAASGRIFTRNDIGWYRQAPGKERQLVAAISHSGGSTYADSVKGSFTISRDNAKNTVFLQMNRLKPEDTEVYYCAADSPYGYYEGDYWGQGTQVTVSS”, which “polyreactivity (PSR sort gate)” value is on record?
Its value is “low polyreactivity”.

For “QVQLVESGGGLVQAGGSLRLRCAASGRIFTTYAMVWYRQAPGKERELVADITTGGGTYYADSVKGRFTISRDNAKNTVYLQMNSLKPEDTAVYYCNADYSADYYWYYYWGQGTQVTVSS”, which “polyreactivity (PSR sort gate)” value is on record?
The value was “low polyreactivity”.

With “QVQLVESGGGLVQAGGSLRLRCAASGRIVYWYAMGWYIQAPGKERELVATINQSGSSTYYADSVKGRFTISRDNAKNTVYLQMNSLKPEDTAVYYCARARSHYAYYWWNAGTGLDYWGQGTQVTVSS” as the sequence, how does the “polyreactivity (PSR sort gate)” value read?
The value was “high polyreactivity”.

With “QVQLVESGGGLVQAGGSLRLRCAASGRTFAINALGWYRQAPGKEREDVASITTSGGRTYYADSVKGRFTISRDNAKNTVYLQMNSLKPEDTAVYYCNAGSYVGSWRFPYYYWGQGTQVTVSS” as the sequence, how does the “polyreactivity (PSR sort gate)” value read?
The value was “high polyreactivity”.

With “QVQLVESGGGLVQAGGSLRLRCAASGRTFKRKAMGWYRQAPGKEREFVAVITGSGGSTYYADSVKGRFTISRDNAKNTVYLQMNSLKPEDTAVYYCAAALGLRSTSWGRRGGGGVYWGQGTQVTVSS” as the sequence, how does the “polyreactivity (PSR sort gate)” value read?
Its value is “high polyreactivity”.

For “QVQLVESGGGLVQAGGSLRLRCAASGRTFKVYAMGWYRQAPGKERELVAAISYSGAGTRYADSVKGRFTISRDNAKNTVYLQMNSLKPEDTAVYYCNTDAWARVKRYEYWGQGTQVTVSS”, which “polyreactivity (PSR sort gate)” value is on record?
The value was “low polyreactivity”.

With “QVQLVESGGGLVQAGGSLRLRCAASGRTFSGYAMGWYRQAPGKERELVAAITSGGNTYYADSVKGRFTISRDNAKNTVYLQMNSLKPEDTAVYYCAVVDYLWLLQLWLSDYWGQGTQVTVSS” as the sequence, how does the “polyreactivity (PSR sort gate)” value read?
Its value is “low polyreactivity”.

Which “polyreactivity (PSR sort gate)” value does the source give for “QVQLVESGGGLVQAGGSLRLRCAASGRTFYSHTMGWYRQAPGKERELVAAIDWSGGRTYYADSVKGRFTISRDNAKNTVYLQMNSLKPEDTAVDYCNTVGYTRRLRSGGYWGQGTQVTVSS” here?
Its value is “high polyreactivity”.

With “QVQLVESGGGLVQAGGSLRLRCAASGSIFAHYTMGWYRQAPGKERELVAVISRSGARTYYADSVKGRFTISRDNAKNTVYLQMNSLKPEDTEVYYCAADRTLEEDYWGQGTQVTVSS” as the sequence, how does the “polyreactivity (PSR sort gate)” value read?
The value was “low polyreactivity”.

With “QVQLVESGGGLVQAGGSLRLRCAASGSIFFFYAMGWYRQAPGKERELVAAISKSPSSTYYADSVKGRFTISRDNAKNTVYLQMNSLKPEDTAVYYCNNGYSGIQYYYWGHGTQVTVSS” as the sequence, how does the “polyreactivity (PSR sort gate)” value read?
Its value is “low polyreactivity”.

For “QVQLVESGGGLVQAGGSLRLRCAASGSIFHSYAMAWYSQAPGKEREMVASITASVDSTYYADSVKGRFTISRDNAKNTVYLQMNSLIPEDTAVYYCAAEAQFNFYSYDFWGQGTQVTVSS”, which “polyreactivity (PSR sort gate)” value is on record?
The value was “low polyreactivity”.

With “QVQLVESGGGLVQAGGSLRLRCAASGSIFKSNAMGWYRQAPGKERELVAAISNGGITNYADSVKGRFTISRDNAKNTVYLQMNSLKPEDTAVYYCATSDVREIWVDYCGQGTQVTVSS” as the sequence, how does the “polyreactivity (PSR sort gate)” value read?
Its value is “low polyreactivity”.

With “QVQLVESGGGLVQAGGSLRLRCAASGSIFLVNALGWYRQAPGKEWELVASITWRGGRTYYADSVKGRFTISRDTAKKTVYLQMNRLKPADTAVYYCSALNYRTGERLRYDYWGQGTQVTVSS” as the sequence, how does the “polyreactivity (PSR sort gate)” value read?
The value was “low polyreactivity”.

For “QVQLVESGGGLVQAGGSLRLRCAASGSIFNSYAMGWYRQAPGKERELVPAISRRGGSTYYADSVKGRFTISRDNAKNTVYLQMHSLKPEDTAVYYCNATRPRLTYLGVGYGYDYWGQGTQVTVSS”, which “polyreactivity (PSR sort gate)” value is on record?
The value was “high polyreactivity”.

With “QVQLVESGGGLVQAGGSLRLRCAASGSIFSGNAMGWYRQAPGKESELVAAISVNGGRTYYADSVKGRFTISRDNAKNTVSLQMNSLKPEDTAVYYCNAVTKVVYHGPYGYDYWGQGTQVTVSS” as the sequence, how does the “polyreactivity (PSR sort gate)” value read?
Its value is “high polyreactivity”.

For “QVQLVESGGGLVQAGGSLRLRCAASGSIFWWYTMGWYRQAPGKERELVASISWSGTSTYYADSVKGRFTISRDNAKYTVYLQMNSLKPEDTALYYCNAVVYWPGTPYTHDDWGQGTQVTVSS”, which “polyreactivity (PSR sort gate)” value is on record?
Its value is “low polyreactivity”.

Which “polyreactivity (PSR sort gate)” value does the source give for “QVQLVESGGGLVQAGGSLRLRCAASGSTFAWYAMGWYRQAPGKERELVAAISRTGRTYYADSVKGRFTISRDNAKNTVYLQMNSLKPEDTAVYYCAARIERFYRDQRYDYWGQGTQVTVSS” here?
Its value is “high polyreactivity”.

For “QVQLVESGGGLVQAGGSLRLRCAASGSTFFRYAMGWYRPAPGKERELLAAITSGGITNYADSVKGRFTISRDNAKNTVYLQMHSLKPEDTAVYYCAKRRTYPGKGRFNYWGQGTQVTVSS”, which “polyreactivity (PSR sort gate)” value is on record?
Its value is “low polyreactivity”.

For “QVQLVESGGGLVQAGGSLRLRCAASGSTFGYNAMGWYRQAPGKESELVAAISSSGGTTYYADSVKARFTISRDNAKNTVYLQMNSLKPEDTAVYYCAADHTVGRYEFEFWGQGTQVTVSS”, which “polyreactivity (PSR sort gate)” value is on record?
Its value is “low polyreactivity”.
